From the RNAGym collection of RNA variant scans (doi:10.1093/molbev/msab373) come the findings set out here.

To fix the notation:
B1: Azoarcus group I ribozyme (parent)
chain: GUGCCUUGCGCCGGGAAACCACGCAAGGGAUGGUGUCAAAUUCGGCGAAACCUAAGCGCCCGCCCGGGCGUAUGGCAACGCCGAGCCAAGCUUCGGCGCCUGCGCCGAUGAAGGUGUAGAGACUAGACGGCACCCACCUAAGGCAAACGCUAUGGUGAAGGCAUAGUCCAGGGAGUGGCGAAAGUCACACAAACCGG

Variants of B1 are the subject of the data set. The data set can be described thus: reverse-splicing fitness (ratio to wild type); higher = more active; in vitro selection; Mg2+ level not given. An outline of the steps:
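An in vitro group I ribozyme library with randomized positions was T7-transcribed and gel-purified. In triplicate, 10 pmol RNA in EPPS pH 7.5 was reacted with 50 pmoles of a 30-nt RNA substrate for 1 h at 37 °C across several added MgCl2 levels (1–48 mM), then stopped with EDTA. Products were reverse transcribed from a substrate-complementary primer, PCR-amplified and sequenced (HiSeq 4000). Fitness is a variant's read proportion after selection over that before, normalised to wild type.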
C82A A111G A120C C169A U176A: the reverse-splicing fitness is 0.0173.

With C82A A111G A120C C169A U176C, the reverse-splicing fitness is 0.0223.

On to C82A A111G A120C A145U C169A U176C, for which the reverse-splicing fitness turned out to be 0.0152.

Take C82A A111G A120C A145U C169A U176G: the reverse-splicing fitness worked out at 0.00526.

On to C82A A111G A120C A145U C169A U176A, for which the reverse-splicing fitness is 0.0138.

As for C82A A111G A120G A145U C150G C169A U176G, the reverse-splicing fitness came out at 0.00526.

As to C82A A111G A120G A145U C150G C169A U176A, the reverse-splicing fitness worked out at 0.00976.

Take C82A A111G A120G A145U C150G C169A U176C: the reverse-splicing fitness was 0.0101.

On to C82A A111G A120G A145U C150A C169A, for which the reverse-splicing fitness was 0.00837.

In the case of C82A A111G A120G A145U C150A C169U, the reverse-splicing fitness was found to be 0.00754.

Take C82A A111G A120G A145U C150A C169G: the reverse-splicing fitness turned out to be 0.00871.

Regarding C82A A111G A120G A145G C150G C169U U176G, the reverse-splicing fitness amounted to 0.00793.

Regarding C82A A111G A120G A145G C150G C169U U176C, the reverse-splicing fitness turned out to be 0.0133.

Turning to C82A A111G A120G A145G C150G C169U U176A, the reverse-splicing fitness stood at 0.0118.

As to C82A A111G A120G A145C C150U C169A, the reverse-splicing fitness came out at 0.00986.

C82A A111G A120G A145C C150U C169U: the reverse-splicing fitness is 0.0082.

As for C82A A111G A120G A145C C150U C169G, the reverse-splicing fitness is 0.00885.

C82A A111G A120G A145U C150A U176G: the reverse-splicing fitness worked out at 0.00563.

As to C82A A111G A120G A145U C150A U176C, the reverse-splicing fitness worked out at 0.0154.

With C82A A111G A120G A145U C150A U176A, the reverse-splicing fitness came to 0.0117.

C82A A111G A120G: the reverse-splicing fitness came out at 0.0164.

Consider C82A A111G A120G A145G C169A U176G, for which the reverse-splicing fitness turned out to be 0.00461.

Regarding C82A A111G A120G A145G C169A U176C, the reverse-splicing fitness is 0.0254.

C82A A111G A120G A145G C169A U176A: the reverse-splicing fitness worked out at 0.0226.

Turning to C82A A111G A120C C150G C169U, the reverse-splicing fitness is 0.00991.

As for C82A A111G A120C C150G C169A, the reverse-splicing fitness stood at 0.00992.

Turning to C82A A111G A120C C150G C169G, the reverse-splicing fitness was 0.00727.

For C82A A111G A120G A145U C150U C169A U176A, the reverse-splicing fitness was 0.0141.

For C82A A111G A120G A145U C150U C169A U176G, the reverse-splicing fitness amounted to 0.00488.

On to C82A A111G A120G A145U C150U C169A U176C, for which the reverse-splicing fitness turned out to be 0.0116.

Regarding C82A A111G A120G A145C C150G U176A, the reverse-splicing fitness was found to be 0.0058.

Regarding C82A A111G A120G A145C C150G U176C, the reverse-splicing fitness is 0.0087.

For C82A A111G A120G A145C C150G U176G, the reverse-splicing fitness turned out to be 0.00287.

On to C82A A111G A120G A145G C150U, for which the reverse-splicing fitness came to 0.0145.

On to C82A A111G A120G A145G C150G, for which the reverse-splicing fitness amounted to 0.00769.

Take C82A A111G A120G A145G C150A: the reverse-splicing fitness was determined as 0.00972.

Take C82A A111G A120G C150U C169G U176C: the reverse-splicing fitness is 0.0192.

As to C82A A111G A120G C150U C169G U176G, the reverse-splicing fitness is 0.0061.

Turning to C82A A111G A120G C150U C169G U176A, the reverse-splicing fitness turned out to be 0.0166.

Turning to C82A A111G A120G A145G C150A C169A U176C, the reverse-splicing fitness stood at 0.0218.

On to C82A A111G A120G A145G C150A C169A U176A, for which the reverse-splicing fitness came out at 0.0205.

On to C82A A111G A120G A145G C150A C169A U176G, for which the reverse-splicing fitness is 0.00687.

On to C82A A111G A120G A145C C150U C169A U176C, for which the reverse-splicing fitness came out at 0.00635.

C82A A111G A120G A145C C150U C169A U176A: the reverse-splicing fitness came to 0.0114.

With C82A A111G A120G A145C C150U C169A U176G, the reverse-splicing fitness was 0.00561.

For C82A A111G A120G A145U C169G U176G, the reverse-splicing fitness worked out at 0.00452.

Take C82A A111G A120G A145U C169G U176C: the reverse-splicing fitness is 0.0158.

C82A A111G A120G A145U C169G U176A: the reverse-splicing fitness came out at 0.0122.

Take C82A A111G A120C A145U C169G U176A: the reverse-splicing fitness worked out at 0.0135.

Regarding C82A A111G A120C A145U C169G U176G, the reverse-splicing fitness amounted to 0.00526.

As for C82A A111G A120C A145U C169G U176C, the reverse-splicing fitness was found to be 0.0172.

C82A A111G A120C C150A C169A U176C: the reverse-splicing fitness was determined as 0.0231.

As to C82A A111G A120C C150A C169A U176A, the reverse-splicing fitness was 0.0277.

For the variant C82A A111G A120C C150A C169A U176G, the reverse-splicing fitness amounted to 0.00754.

As to C82A A111G A120G A145G C150U C169G, the reverse-splicing fitness came out at 0.0113.

As to C82A A111G A120G A145G C150U C169A, the reverse-splicing fitness worked out at 0.0119.

In the case of C82A A111G A120G A145G C150U C169U, the reverse-splicing fitness worked out at 0.011.

For C82A A111G A120G A145U U176C, the reverse-splicing fitness was 0.0167.

C82A A111G A120G A145U U176G: the reverse-splicing fitness was found to be 0.00583.

Take C82A A111G A120G A145U U176A: the reverse-splicing fitness turned out to be 0.0131.

C82A A111G A120G A145U C150G C169U U176A: the reverse-splicing fitness was found to be 0.012.

On to C82A A111G A120G A145U C150G C169U U176C, for which the reverse-splicing fitness turned out to be 0.0132.

C82A A111G A120G A145U C150G C169U U176G: the reverse-splicing fitness amounted to 0.00483.

Take C82A A111G A120C C150A C169U U176C: the reverse-splicing fitness stood at 0.0133.

Turning to C82A A111G A120C C150A C169U U176G, the reverse-splicing fitness is 0.00938.

Take C82A A111G A120C C150A C169U U176A: the reverse-splicing fitness came out at 0.0162.

For the variant C82A A111G A120G A145U C150U C169U U176G, the reverse-splicing fitness was 0.00555.

For C82A A111G A120G A145U C150U C169U U176A, the reverse-splicing fitness was determined as 0.0192.

Take C82A A111G A120G A145U C150U C169U U176C: the reverse-splicing fitness was 0.0152.

For C82A A111G A120G C150G, the reverse-splicing fitness stood at 0.00686.

For the variant C82A A111G A120G C150U, the reverse-splicing fitness came to 0.0127.

As for C82A A111G A120G C150A, the reverse-splicing fitness is 0.0105.

Turning to C82A A111G A120G A145G C169G U176C, the reverse-splicing fitness worked out at 0.0276.

Consider C82A A111G A120G A145G C169G U176G, for which the reverse-splicing fitness amounted to 0.00435.

As for C82A A111G A120G A145G C169G U176A, the reverse-splicing fitness was determined as 0.0204.

C82A A111G A120C C150A C169G U176C: the reverse-splicing fitness was determined as 0.0256.

Turning to C82A A111G A120C C150A C169G U176G, the reverse-splicing fitness came out at 0.00675.

In the case of C82A A111G A120C C150A C169G U176A, the reverse-splicing fitness came out at 0.0219.

Consider C82A A111G A120G C150A C169U U176A, for which the reverse-splicing fitness amounted to 0.0244.

With C82A A111G A120G C150A C169U U176C, the reverse-splicing fitness worked out at 0.0219.

Turning to C82A A111G A120G C150A C169U U176G, the reverse-splicing fitness worked out at 0.00838.

On to C82A A111G A120G C150G C169U U176A, for which the reverse-splicing fitness is 0.0124.

In the case of C82A A111G A120G C150G C169U U176G, the reverse-splicing fitness amounted to 0.00657.

Consider C82A A111G A120G C150G C169U U176C, for which the reverse-splicing fitness worked out at 0.0135.
